Measurements: patent publication US20240261221A1, “POLYOL-MODIFIED LIPID COMPOUND AND PREPARATION METHOD AND APPLICATION THEREOF” (JENKEM TECHNOLOGY CO., LTD. (TIANJIN), priority 2021, published 2024)

Columns and labels:
KDR mRNA = assay: Gene inhibitory effect of siRNA-PEG-lipid particle composition after cell delivery in A375 cells; type: cell-based; conditions: particles prepared from PEG-lipids and anti-KDR siRNA, 24 h and 48 h after transfection
Method: (1) ARPE-19 cells were cultured in a DMEM/F12+12% FBS+double antibody medium (containing 100 U/mL Penicillin, 100 μg/mL Streptomycin) and placed in an incubator at 37° C. with 5% CO2 and saturated humidity. 24 h before the experiment, the cells were seeded onto a 12-well plate at 1.2×10^5 cell/well and cultured overnight. (2) 50 μL of diluted anti-KDR siRNA:compound 1 (1:10), anti-KDR siRNA:compound 2 (1:10), and anti-KDR siRNA:compound 3 (1:10) (in molar ratios: the siRNA concentration was 20 μM) from […] with an OPTI-MEM culture medium were separately mixed with 50 μL of a diluted Lipofectamine 3000™ transfection reagent from 3 μL with an OPTI-MEM culture medium for positive control, followed by gently shaking, and the mixed solutions were left to stand for 15 min. In addition, a blank group, an NC group, and an NC-RL group were set.
Anti-KDR siRNA is an siRNA that inhibits VEGFR2 mRNA expression, and the preparation method therefor is described in patent document CN202010229195.2: the sequence is as follows: • Sense strand: 5′-GGAGUGAGAUGAAGAAAUU-3′; • Antisense strand: 5′-AAUUUCUUCAUCUCACUCC-3′. (3) The medium was refreshed for the cells in each well in the cell plate, an antibiotic-free culture medium was added at 900 μL/well, and then 100 μL of the mixed solution was added into each well, finally the total volume of each well being 1000 μL. The siRNA (or siRNA NC, or siR-NC RL) transfection concentration was 50 nM. (4) 24 h and 48 h after transfection, the 12-well plate was taken out from the incubator at 37° C. with 5% CO2, and the cells were harvested for RNA extraction for subsequent detection.
The relative expression level of KDR mRNA was calculated by AACt with GAPDH as an endogenous reference gene: mRNA expression levels were normalized for each group with the expression level for the blank group as 100%.
The foregoing procedure was similar to that of Example 4 except that the culture medium for the A375 cells was a DMEM culture medium containing 10% FBS (containing 100 U/mL Penicillin, 100 μg/mL of Streptomycin).

IgE = assay: Plasma IgE level after challenge administration in guinea pigs; type: in vivo; conditions: guinea pig plasma, 40 min after challenge
Method: 48 healthy guinea pigs which were fed with food normally for 5 days were randomly divided into 6 groups, with 8 guinea pigs for each group. Group A: negative control group (0.9% sodium chloride injection): group B: positive control group (0.15 mg/mL ovalbumin solution. available from Sigma. USA, lot No. DHO15-4): group C: M-PEG47-DTDPAM (i.e., compound 1. prepared in Example 1); group D: M-PEG47-DTDPA (i.e., compound 2. prepared in Example 2): group E: M-DTDPAM-2000 (available from Tianjin JenKem Technology Co., Ltd., lot No. ZZ409P002); group F: M-DTDPA-2000 (available from Tianjin JenKem Technology Co., Ltd., lot No. ZZ409P004).
(§1) Sensitization was carried out by intraperitoneal injection, and the administration was carried out once every other day at a volume of 1 mL/guinea pig for 4 times in total. On the second day after the last sensitization, each group of guinea pigs was challenged by applying a corresponding liquid medicine to the toes thereof via intravenous injection at a dose of 2 mL/guinea pig. The animal state was observed daily during sensitization, the reaction of guinea pigs was continuously observed for 40 min at 15 min before and after challenging via intravenous injection, and the time of onset and disappearance of symptoms was recorded. Blood was collected 40 min after challenging and drug withdrawal, anticoagulated with heparin, and made into blood plasma.

guinea pigs = assay: Allergy study of PEG-lipids in guinea pigs: systemic sensitization symptom grading; type: in vivo, guinea pig
Method: (§2) 48 healthy guinea pigs which were fed with food normally for 5 days were randomly divided into 6 groups, with 8 guinea pigs for each group.
as §1, with “The animal state was observed daily during sensitization, the reaction of guinea pigs was continuously observed for 40 min at 15 min before and after challenging via intravenous injection, and the time of onset and disappearance of symptoms was recorded.” left out
During sensitization and at the time of challenge administration, animals were observed and recorded for the onset and duration of symptoms, such as nasal scratching, sneezing, restlessness, jumping, panting, and purpura, and the score and grade of symptoms were determined according to the criteria for grading symptoms of systemic sensitization (Table 3).

histamine = assay: Plasma histamine level after challenge administration in guinea pigs; type: in vivo, guinea pig
Method: as §2
as §1, with “The animal state was observed daily during sensitization, the reaction of guinea pigs was continuously observed for 40 min at 15 min before and after challenging via intravenous injection, and the time of onset and disappearance of symptoms was recorded.” left out

CCCCCCCCCCCCCCN(CCCCCCCCCCCCCC)CCCOCCOCCOCCOCCOCCOCCOCCOCCOCCOCCOCCOCCOCCOCCOCCOCCOCCOCCOCCOCCOCCOCCOCCOCCOCCOCCOCCOCCOCCOCCOCCOCCOCCOCCOCCOCCOCCOCCOCCOCCOCCOCCOCCOCCOCCOCCOCCOC [compound 2]
inhibitory effect on KDR mRNA (relative expression level of KDR mRNA) (KDR mRNA): significant and continuous inhibitory effect

CCCCCCCCCCCCCCN(CCCCCCCCCCCCCC)C(=O)CCOCCOCCOCCOCCOCCOCCOCCOCCOCCOCCOCCOCCOCCOCCOCCOCCOCCOCCOCCOCCOCCOCCOCCOCCOCCOCCOCCOCCOCCOCCOCCOCCOCCOCCOCCOCCOCCOCCOCCOCCOCCOCCOCCOCCOCCOCCOCCOC [compound 1]
inhibitory effect on KDR mRNA (relative expression level of KDR mRNA) (KDR mRNA): significant and continuous inhibitory effect

CCCCCCCCCCCCCC(=O)OCC(COCCOCCOCCOCCOCCOCCOCCOCCOCCOCCOCCOCCOCCOCCOCCOCCOCCOCCOCCOCCOCCOCCOCCOCCOCCOCCOCCOCCOCCOCCOCCOCCOCCOCCOCCOCCOCCOCCOCCOCCOCCOCCOCCOCCOCCOCCOC)OC(=O)CCCCCCCCCCCCC (centres unmarked) [compound 3]
inhibitory effect on KDR mRNA (relative expression level of KDR mRNA) (KDR mRNA): significant and continuous inhibitory effect

B1: Positive control group: 0.15 mg/mL ovalbumin solution, available from Sigma, USA (protein, UniProt P01012 2-386, looked up)
Ovalbumin: GSIGAASMEFCFDVFKELKVHHANENIFYCPIAIMSALAMVYLGAKDSTRTQINKVVRFDKLPGFGDSIEAQCGTSVNVHSSLRDILNQITKPNDVYSFSLASRLYAEERYPILPEYLQCVKELYRGGLEPINFQTAADQARELINSWVESQTNGIIRNVLQPSSVDSQTAMVLVNAIVFKGLWEKAFKDEDTQAMPFRVTEQESKPVQMMYQIGLFRVASMASEKMKILELPFASGTMSMLVLLPDEVSGLEQLESIINFEKLTEWTSSNVMEERKIKVYLPRMKMEEKYNLTSVLMAMGITDVFSSSANLSGISSAESLKISQAVHAAHAEINEAGREVVGSAEAGVDAASVSEEFRADHPFLFCIKHIATNAVLFFGRCVSP
IgE level (IgE): 286.33 ± 34.67 ng/mL | Allergic symptoms (grade) (guinea pigs; after challenge administration, grade per Table 3): extremely positive | Mean score (guinea pigs; i.p. sensitization 4 times, i.v. challenge, scoring per Table 3): 2.8 | plasma histamine level compared with group A (histamine; guinea pig plasma after challenge): significantly different from that of group A | Histamine level (histamine; guinea pig plasma, 40 min after challenge): 12.21 ± 4.25 ng/mL
